According to article PMC3272785:

Tested on: Nc1nc(=O)[nH]cc1F
Assay: steady-state kinetics
Type: biochemical, Saccharomyces cerevisiae
Conditions: Zn2+

Substance	Km	kcat	kcat/Km
yeast cytosine deaminase (yCD) (Saccharomyces cerevisiae S288C; E64A)	33 ± 6 mM	7.3e-05 ± 6e-06 s⁻¹	0.0022 M⁻¹ s⁻¹
yeast cytosine deaminase (yCD) (Saccharomyces cerevisiae S288C; E64D)	19 ± 6 mM	0.0051 ± 0.001 s⁻¹	0.26 M⁻¹ s⁻¹
